# In patent US20150125397A1, “DUAL SPECIFIC BINDING PROTEINS DIRECTED AGAINST IMMUNE CELL RECEPTORS AND AUTOANTIGENS” (ABBVIE INC., priority 2013, published 2015):
# Legend:
# [1] = system: Dnase2−/− Ifnar1−/− DKO B cells; test: 3H-thymidine incorporation of B220-purified B cells, DKO; format: cell-based, mouse; settings: 24 hours, FIG. 10C
# Source text: Mice: RF and Tlr-9^−/− mice have been described previously (Uccellini et al. (2008) J. Immunol. 181:5875-5884), The DNase II-deficient mice on a C57BL/6 background were kindly provided by Dr. S, Nagata and obtained from the RIKEN Institute. […] and Unc93B1-deficient mice were obtained from Jackson Lab. DnaseII^−/− Ifnar1^−/− (Het), DnaseII^−/− Ifnar1−/− (DKO), and DnaseII^−/− Unc93b1^−/− (TKO), were bred at UMMS. All mice were maintained at the Department of Animal Medicine of the University of Massachusetts Medical School in accordance with the regulations of the American Association for the Accreditation of Laboratory Animal Care.
# Proliferation of B220+ B cells: B cells were purified by magnetic bead separation using CD45R/B220-conjugated magnetic particles (BD Biosciences, San Jose, Calif., USA) and stimulated as described previously (Nundel et al. (2013) J. Leukoc. Biol. 94:865-875) with 15 μg/ml goat anti-mouse IgM F(ab′)2 (Jackson ImmunoResearch), ODN1826 (CpG; Idera Pharmaceuticals), anti-DNA-mAb (Leadbetter et al. (2002) Nature 416:603-607), or DVD-Ig proteins (1 μg/ml). B cell proliferation was assessed by ^3H-thymidine (Amersham Biosciences, Piscataway, N.J., USA) incorporation at 24 hours post-stimulation. For long-term proliferation assays, B220-purified B cells were labeled with a final concentration of 2.5 μM CFSE (Life Technologies) in PBS for 2 minutes. […]
# DNA = test: Antinuclear antibody (ANA) test; format: binding; design: key to ANA score, relative result: (X)-(XXX) indicates relative results; (XX): (X)-(XXX) indicates relative results; (X)-(XXX) indicates relative results; settings: for ANA score / ANA score, relative result: ANA staining at 10 μg/ml
# Experimental: The cloned BWR4 and PA4 antibodies as well as the DVD-Ig proteins were tested for ANA reactivity using the ANA test kit. Briefly, the DVD-Ig proteins and antibodies were diluted to […] in blocking buffer (1% BSA in PBS). The DVD-Ig proteins and antibodies were added to separate wells of an ANA slide at 50 μl/well and incubated in a moist chamber for 2 hours at room temperature (RT). The wells were then washed 3× with PBS. To detect bound antibodies, Alexa Fluor 488 conjugated goat α-human IgG (α-hIgG) was then added at a dilution of 1:1,000 and the slide incubated in a moist chamber for 1 hour. Unbound detecting antibody was removed by immersing the slide in a jar containing PBS and incubating for 10 minutes at RT with gentle rocking. The prior step was repeated 2× and 10 μl of Prolong® Gold Antifade was added to each well and a 24 mm×60 mm #1 cover glass seated on top. The covered slide was incubated overnight at RT and then sealed by applying clear nail polish to the edges. Binding of the DVD-Ig proteins and antibodies to the slides was assessed by fluorescence microscopy.
# DVD-Ig proteins DVD3751-DVD3760 were characterized by antinuclear antibody (ANA) staining at 10 μg/ml according to the method of Example 2.4.
# ANA: HEp-2 human tissue culture substrate slides were incubated with 5 μg/ml of the anti-DNA-IgG2a or the DVD-Ig™ binding protein for 2 hours at RT. The slides were washed and bound antibodies were detected with Alexa-488 goat anti-human antibody or DyLight 488 goat anti-mouse antibody.
# RF B cells = test: Proliferation of B220+ B cells, RF (AM14); format: cell-based, mouse
# Experimental: Proliferation of B220+ B cells: B cells were purified by magnetic bead separation using CD45R/B220-conjugated magnetic particles (BD Biosciences, San Jose, Calif., USA) and stimulated as described previously (Nundel et al. (2013) J. Leukoc. Biol. 94:865-875) with 15 μg/ml goat anti-mouse IgM F(ab′)2 (Jackson ImmunoResearch), ODN1826 (CpG; Idera Pharmaceuticals), anti-DNA-mAb (Leadbetter et al. (2002) Nature 416:603-607), or DVD-Ig proteins (1 μg/ml). B cell proliferation was assessed by ^3H-thymidine (Amersham Biosciences, Piscataway, N.J., USA) incorporation at 24 hours post-stimulation. For long-term proliferation assays, B220-purified B cells were labeled with a final concentration of 2.5 μM CFSE (Life Technologies) in PBS for 2 minutes. The cells were then washed and cultured for 72 hours in the presence of BLyS (Human Genome Sciences).
# FACS for B cells: Multicolor flow cytometry analysis was carried out using a BD LSR II with DIVA software (BD Biosciences). Analysis was conducted with FlowJo software (Tree Star, Ashland, Oreg., USA) Immature and mature B cell ratios were determined using Pacific Blue-B220 and APC-AA4.1 (eBioscience). Dead cells and debris were excluded by forward- and side-scatter. Proliferation was assessed by CFSE dilution. Cell death was ascertained using the DNA stain TO-PRO-3 (Life Technologies) at a final concentration of 20 nM.
# [2] = system: wild type (WT) primary B cells; test: CFSE dilution / TO-PRO-3 FACS of wild type B cells (Example 4); format: cell-based, mouse; settings: 72 hours, FIG. 4
# Experimental: Primary murine B cells were purified by positive selection as described above. For cultures >48 hours old, proliferation was quantified by carboxyfluorescein diacetate, succinimidyl ester (CFSE) dilution and cell death by TO-PRO-3 binding. To label the cells with CFSE, the cells were first washed 2 times with PBS. Next, the stock of CFSE was diluted to 10 μM in PBS and the cells were brought to 1×10^7 cells/ml. The cells were mixed at a 1:1 ratio with 10 μM CFSE and mixed gently for 2 minutes. The CFSE labeling reaction was stopped by adding heat inactivated fetal calf serum equal in volume to the starting volume for the cell suspension. The cells were washed two times with media and resuspended to 1-4×10^6 cells/ml and were incubated with 0.5 μg/ml DVD-Ig proteins (DVD3759 and DVD3754) or antibodies, with or with out 0.05 μg/ml Blys. Proliferation was measured by fluorophore dilution at 60-72 hours by flow cytometry. […]
# To determine if IRAK4 kinase activity is required for activation and/or death induced TLR9 via DVD3759, either wild type (WT), IRAK2 knock out (IRAK2KO) or IRAK 4 knock-in (IRAK4 KI) primary B cells were purified and tested in a method similar to Example 2.7. […] After 72 hours, cells were stained with 500 nM of the cell permeable DNA stain TOP-RO-3 and analyzed by FACS. Cell division was determined by dilution of CFSE and dead cells were identified by staining with TOP-RO-3.
Molecule,response of DKO B cells [1],"level of ANA staining (DNA; 10 μg/ml, among DVD3751-DVD3760)",ANA score (DNA),"ANA score, relative result (DNA)","ANA, immunofluorescent HEp-2 staining (DNA; Example 6, 5 μg/ml, FIG. 8C)","level of activation compared with anti-DNA mAb (RF B cells; FIG. 9A,B)","activation / proliferation of RF B cells (RF B cells; Tlr9+/+, 3H-thymidine 24 hours, CFSE 72 hours, FIG. 9)",effect of addition of BLyS on cell death ([2]; 0.05 μg/ml BLyS),cell division (CFSE dilution) and cell death (TO-PRO-3) ([2]; 0.5 μg/ml)
"DVD3754: DVD-Ig: VD1 DNA(PA4), SL linker, VD2 mIgM (B7.6); heavy SEQ ID NO 54, light 55 (antibody) heavy: EVQLVESGGGLVKPGGSLKLSCVASGFTFSTYAMSWVRQTPTKRLEWVATISRGGVSTYYPDTVKGRFTISRDNAKNTLYLQMSSLRSEDTAMYYCARPPTIVTTWFAYWGQGTLVTVSSASTKGPQVQLKESGPGLVKPSLTLSLTCTVSGFSLNGYGVIWVRQPPGKGLEWMGVIWGNGNTNYNSTLKSRLSISRDTSKSQVFLKMNNLQTEDTAMYFCARSENYYSSPGYFAYWGQGTLVTVSS light: DVVMTQTPLSLPVSLGDQASISCRSSQSLVHSNGNTYLHWYLQKPGQSPKLLIYKVSNRFSGVPDRFSGSGSGTDFTLKISRVEAEDLGAYFCSQSTHVPYTFGGPTRLEIKRTVAAPSVFIFPPNTVMTQSPTSMFISVGDRVTMNCKASQNVGSDVDWYQQKTGQSPKLLISGTSNRYTGVPDRFTGSGSGTDFTLTISNMQAEDLAVYYCLQYNYNPTFGAGTKLELKR",failed to respond,highest level of staining,4.5,(XXX),high ANA score,comparable,induced both RF and non-Tg BALB/c B cells,–,–
"DVD3759: DVD-Ig: VD1 mIgM (B7.6), SL linker, VD2 DNA(PA4); heavy SEQ ID NO 64, light 65 (antibody) heavy: QVQLKESGPGLVKPSLTLSLTCTVSGFSLNGYGVIWVRQPPGKGLEWMGVIWGNGNTNYNSTLKSRLSISRDTSKSQVFLKMNNLQTEDTAMYFCARSENYYSSPGYFAYWGQGTLVTVSSASTKGPEVQLVESGGGLVKPGGSLKLSCVASGFTFSTYAMSWVRQTPTKRLEWVATISRGGVSTYYPDTVKGRFTISRDNAKNTLYLQMSSLRSEDTAMYYCARPPTIVTTWFAYWGQGTLVTVSS light: NTVMTQSPTSMFISVGDRVTMNCKASQNVGSDVDWYQQKTGQSPKLLISGTSNRYTGVPDRFTGSGSGTDFTLTISNMQAEDLAVYYCLQYNYNPTFGAGTKLELKRTVAAPSVFIFPPDVVMTQTPLSLPVSLGDQASISCRSSQSLVHSNGNTYLHWYLQKPGQSPKLLIYKVSNRFSGVPDRFSGSGSGTDFTLKISRVEAEDLGAYFCSQSTHVPYTFGGPTRLEIKR",–,–,3.5,(XX),–,–,–,could be rescued,induced several rounds of division followed by post-proliferative cell death
